Test results as given in patent US20240165260A1, “CONJUGATES OF ANTIBODY AND FUNCTIONAL SUBSTANCE OR SALTS THEREOF, AND COMPOUNDS USED IN PRODUCTION OF THE SAME OR SALTS THEREOF” (priority 2021, published 2024).

Legend:
[1] = Test for stability of ADC mimic in mouse plasma (released fluorescent molecules); type: in vitro ADME; conditions: 0.1 mg/mL, 37° C., four days
Procedure: An ADC mimic was added to 500 μL of mouse plasma (manufactured by Charles River) so as to have a concentration of 0.1 mg/mL, and then the mixture was subjected to sterile filtration. 50 μL of this solution was poured into each of six Eppendorf tubes. Three of the six samples were stored in an incubator set at 37° C. for four days. The remaining three samples were stored in a freezer at −80° C. for four days similarly. To each of the samples, 100 μL of acetonitrile was added. The mixture was stirred by vortex, and then centrifuged to obtain a precipitate. The resulting supernatant solution was collected and subjected to HPLC analysis.
For the measurement, the amount of fluorescent molecules released from an ADC mimic was measured using a liquid chromatography/fluorescence detection method. The three samples stored in a freezer in Example 9-1 were taken as Day=0 samples, and the three samples stored at 37° C. in Example 9-1 were taken as Day=4 samples. A difference in fluorescence intensity between Day=4 samples and Day=0 samples was analyzed.
A releasing ratio of the fluorescent molecules was calculated according to Example 7-2.
Regarding the results, as illustrated in the following Table, a releasing ratio of the fluorescent molecules was evaluated.

[2] = target: cathepsin B (Homo sapiens, UniProt P07858); assay: Cathepsin B cleavability test of ADC mimics (released fluorescent molecules, HPLC/fluorescence); type: biochemical; conditions: 1 mg/mL ADC mimic, MES buffer pH 5.0, 37° C., six hours
Procedure: Cleave abilities for various ADC mimics by cathepsin B were evaluated by analyzing the amount of fluorescent molecules released from the ADC mimics as described below.
A cathepsin B cleavability test was performed as follows according to a previous report (Nature Communications 2018, 9, 2512, which is incorporated herein by reference in its entirety). An ADC mimic was added to 180 μL of a MES buffer (10 mM MES, 40 μM DTT, pH 5.0) so as to have a concentration of 1 mg/mL, and then 30 μL of the solution was poured into each of six Eppendorf tubes. To each of three of the six samples, 100 μL of acetonitrile was immediately added at 0° C. The mixture was stirred by vortex, and then centrifuged to obtain a precipitate. The resulting supernatant solution was collected and subjected to HPLC analysis. The remaining three samples were incubated at 37° C. for six hours. To each of the samples, 100 μL of acetonitrile was added. The mixture was stirred by vortex, and then centrifuged to obtain a precipitate. The resulting supernatant solution was collected and subjected to HPLC analysis.
For the measurement, the amount of fluorescent molecules released from an ADC mimic was measured using a liquid chromatography/fluorescence detection method. The three samples to which acetonitrile was immediately added at 0° C. in Example 7-1 were taken as 0 hour samples, and the three samples incubated at 37° C. for six hours as described in Example 7-1 were taken as 6 hour samples. A difference in fluorescence intensity between the 6 hour samples and the 0 hour samples was analyzed.
Separately, a correlation between the area of a fluorescence intensity area by HPLC and a concentration was calculated using Pyrene. The difference in fluorescence intensity between the ADC mimics was converted into a concentration using the calculation formula. When the concentration at 0 hour was set to 100%, a ratio of the above-described difference in fluorescence intensity was calculated as a releasing ratio.

[3] = Evaluation of hydrophobicity by hydrophobic column chromatography (HIC-HPLC); type: physicochemical; conditions: hydrophobicity measure, Tosoh Biobuthyl NPR column, UV 280 nm
Procedure: According to a previous report (Anal. Chem., 2019, 91, 20, 12724-12732, which is incorporated herein by reference in its entirety), HIC-HPLC analysis was performed. Measurement was performed using the following conditions. The hydrophobicity of an ADC can be evaluated by retention time of the ADC in HIC chromatogram.
Measurement system: Chromaster (registered trademark) (manufactured by Hitachi, Ltd.)
Column: Tosoh Biobuthyl NPR 2.5 μm 4.6×35 mm column manufactured by Tosoh Bio-Sciences Inc.
Gradient: linear gradient of eluent A/B
Eluent B: 25 mM Na2HPO4/NaH2PO4 (pH 6.0, 25 v/v % isopropanol added)

[4] = Evaluation of aggregation ratio by size exclusion chromatography (SEC-HPLC); type: physicochemical; conditions: UV 280 nm
Procedure: SEC-HPLC analysis was performed according to a previous report (Chemistry Select, 2020, 5, 8435-8439, which is incorporated herein by reference in its entirety). Measurement was performed using the following conditions.
Measurement system: 1260 HPLC system (manufactured by Agilent)
Column: AdvanceBio SEC 300 Å, 2.7 μm, 4.6 mm×150 mm, manufactured by Agilent Technologies
Eluent: 100 mM sodium dihydrogen phosphate/sodium hydrogen phosphate, aqueous solution of 250 mM sodium chloride (pH 6.8), 10′% v/v isopropanol

| SMILES | Releasing ratio of payload on Day 4 [1] | Releasing ratio of fluorescent molecule for 6 hours [2] | Retention time [3] | aggregation ratio [4] |
| --- | --- | --- | --- | --- |
| CNC(=O)CCSC1CC(=O)N(CCCCCC(=O)N[C@@H](C(=O)N[C@H](CCCNC(N)=O)C(=O)Nc2ccc(COC(=O)N(C)CC(=O)NCc3cc4ccc5cccc6ccc(c3)c4c56)cc2)C(C)C)C1=O (stereo partly drawn) [ADC mimic 4, reference compound] | 38% | 53% | 13.1 min | 6.2% |
| CNC(=O)CCSC1CC(=O)N(CCCCCC(=O)N(CC(=O)O)CC(=O)N[C@H](C(=O)N[C@@H](CCCNC(N)=O)C(=O)Nc2ccc(COC(=O)N(C)CC(=O)NCc3cc4ccc5cccc6ccc(c3)c4c56)cc2)C(C)C)C1=O (stereo partly drawn) [ADC mimic 3] | 9% | 100% | 12.7 min | 2.9% |
| CNC(=O)CCSC1CC(=O)N(CCCCCC(=O)N[C@@H](CCC(=O)O)C(=O)N[C@H](C(=O)N[C@@H](CCCNC(N)=O)C(=O)Nc2ccc(COC(=O)N(C)CC(=O)NCc3cc4ccc5cccc6ccc(c3)c4c56)cc2)C(C)C)C1=O (stereo partly drawn) [ADC mimic 1] | 8% | 88% | 12.8 min | 3.0% |
